Data on one molecule can be found in paper PMC3814767, “Target Specificity of the E3 Ligase LUBAC for Ubiquitin and NEMO Relies on Different Minimal Requirements* ^([image sbox.jpg])” (The Journal of Biological Chemistry, 2013).

The target in the assay is T1, N-terminal TAMRA-labeled ubiquitin (wild type) (UniProt P0CG48 1-76, TAMRA (5-carboxytetramethylrhodamine) label on the N-terminus).
T1 construct: also called ^TAMRAubiquitin; ^TAMRAUb; source: chemically synthesized (according to El Oualid et al.), purified over Resource S and gel filtration (Superdex 75)
The assay can be described thus: fluorescence polarisation; TAMRA-ubiquitin 1 nM, HOIP^LDD in 1:1 serial dilutions, three repeats; 20 mM Hepes pH 7.5, 150 mM NaCl, 5 mM βME, 1 g/liter chicken ovalbumin; fit to a 1:1 non-linear binding model. Conditions: both partners purified. For orientation: Polarisation of emitted light reports the rotation of a fluorescent probe.

B1: HOIP linear ubiquitin chain determining domain (LDD) (domain or fragment, UniProt Q96EP0 910-1072, looked up)
chain: KCPEPNCRVKKSLHGHHPRDCLFYLRDWTALRLQKLLQDNNVMFNTEPPAGARAVPGGGCRVIEQKEVPNGLRDEACGKETPAGYAGLCQAHYKEYLVSLINAHSLDPATLYEVEELETATERYLHVRPQPLAGEDPPAYQARLLQKLTEEVPLGQSIPRRRK
notes: HOIP (RNF31), the C-terminal linear ubiquitin chain determining domain (LDD); also called HOIP^LDD; HOIP LDD domain
A word on the Kd: it is the concentration at which binding is half-saturated. For B1, the Kd is 160 ± 40 µM.
